T1: UBE2N (human, UniProt P61088 1-152)
T1 construct: endogenous prey from cell lysate; also called UBC13
T1 sequence (looked up): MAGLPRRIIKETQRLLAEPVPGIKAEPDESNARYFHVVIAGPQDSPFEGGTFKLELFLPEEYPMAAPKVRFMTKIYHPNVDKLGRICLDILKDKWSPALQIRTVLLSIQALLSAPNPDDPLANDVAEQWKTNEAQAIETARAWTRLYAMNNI


biological target: T1, UBE2N; experiment: AP-MS, PPI score from compPASS and SAINTexpress, MDA-MB-231 cells
Description: For AP-MS experiments, samples were resuspended in 15 μL of MS loading buffer (4% formic acid, 2% acetonitrile) and 2 μL were separated by a reversed-phase gradient over a nanoflow 75 μm ID×25 cm long picotip column packed with 1.9 μM C18 particles (Dr. Maisch). Peptides were directly injected over the course of a 75 min acquisition into a Q-Exactive Plus mass spectrometer (Thermo), or over the course of a 90 min acquisition into a Orbitrap Elite mass spectrometer. […] Peptides and proteins were filtered to 1% false discovery rate in MaxQuant, and identified proteins were then subjected to protein-protein interaction scoring.
All PPI scoring was performed separately for each cell line. For SAINTexpress, control samples in which bait protein was not induced by addition of doxycycline were used. For CompPASS, a stats table representing all WT baits was used. After scoring, the CompPASS WD and Z-score were normalized within a given bait for each cell line. The total list of candidate PPIs was filtered to those that met the following criteria: SAINTexpress BFDR=<0.05, WD percentile by bait>=0.95, and Z-score percentile by bait≤=0.95. PPIs passing all 3 of these criteria were considered to be high-confidence PPIs. To enable visualization and analysis of PPIs by confidence score among these 3 criteria, a PPI score was calculated: [(WD percentile by bait+Z-score percentile by bait)/2)+(1−BFDR)]/2.

PPI score	Binder
< 0.6	BRCA1 R71G (enzyme, human, UniProt P38398 1-1863, looked up, 3xFLAG-tagged bait; also called RING domain mutant R71G) MDLSALRVEEVQNVINAMQKILECPICLELIKEPVSTKCDHIFCKFCMLKLLNQKKGPSQCPLCKNDITKGSLQESTRFSQLVEELLKIICAFQLDTGLEYANSYNFAKKENNSPEHLKDEVSIIQSMGYRNRAKRLLQSEPENPSLQETSLSVQLSNLGTVRTLRTKQRIQPQKTSVYIELGSDSSEDTVNKATYCSVGDQELLQITPQGTRDEISLDSAKKAACEFSETDVTNTEHHQPSNNDLNTTEKRAAERHPEKYQGSSVSNLHVEPCGTNTHASSLQHENSSLLLTKDRMNVEKAEFCNKSKQPGLARSQHNRWAGSKETCNDRRTPSTEKKVDLNADPLCERKEWNKQKLPCSENPRDTEDVPWITLNSSIQKVNEWFSRSDELLGSDDSHDGESESNAKVADVLDVLNEVDEYSGSSEKIDLLASDPHEALICKSERVHSKSVESNIEDKIFGKTYRKKASLPNLSHVTENLIIGAFVTEPQIIQERPLTNKLKRKRRPTSGLHPEDFIKKADLAVQKTPEMINQGTNQTEQNGQVMNITNSGHENKTKGDSIQNEKNPNPIESLEKESAFKTKAEPISSSISNMELELNIHNSKAPKKNRLRRKSSTRHIHALELVVSRNLSPPNCTELQIDSCSSSEEIKKKKYNQMPVRHSRNLQLMEGKEPATGAKKSNKPNEQTSKRHDSDTFPELKLTNAPGSFTKCSNTSELKEFVNPSLPREEKEEKLETVKVSNNAEDPKDLMLSGERVLQTERSVESSSISLVPGTDYGTQESISLLEVSTLGKAKTEPNKCVSQCAAFENPKGLIHGCSKDNRNDTEGFKYPLGHEVNHSRETSIEMEESELDAQYLQNTFKVSKRQSFAPFSNPGNAEEECATFSAHSGSLKKQSPKVTFECEQKEENQGKNESNIKPVQTVNITAGFPVVGQKDKPVDNAKCSIKGGSRFCLSSQFRGNETGLITPNKHGLLQNPYRIPPLFPIKSFVKTKCKKNLLEENFEEHSMSPEREMGNENIPSTVSTISRNNIRENVFKEASSSNINEVGSSTNEVGSSINEIGSSDENIQAELGRNRGPKLNAMLRLGVLQPEVYKQSLPGSNCKHPEIKKQEYEEVVQTVNTDFSPYLISDNLEQPMGSSHASQVCSETPDDLLDDGEIKEDTSFAENDIKESSAVFSKSVQKGELSRSPSPFTHTHLAQGYRRGAKKLESSEENLSSEDEELPCFQHLLFGKVNNIPSQSTRHSTVATECLSKNTEENLLSLKNSLNDCSNQVILAKASQEHHLSEETKCSASLFSSQCSELEDLTANTNTQDPFLIGSSKQMRHQSESQGVGLSDKELVSDDEERGTGLEENNQEEQSMDSNLGEAASGCESETSVSEDCSGLSSQSDILTTQQRDTMQHNLIKLQQEMAELEAVLEQHGSQPSNSYPSIISDSSALEDLRNPEQSTSEKAVLTSQKSSEYPISQNPEGLSADKFEVSADSSTSKNKEPGVERSSPSKCPSLDDRWYMHSCSGSLQNRNYPSQEELIKVVDVEEQQLEESGPHDLTETSYLPRQDLEGTPYLESGISLFSDDPESDPSEDRAPESARVGNIPSSTSALKVPQLKVAESAQSPAAAHTTDTAGYNAMEESVSREKPELTASTERVNKRMSMVVSGLTPEEFMLVYKFARKHHITLTNLITEETTHVVMKTDAEFVCERTLKYFLGIAGGKWVVSYFWVTQSIKERKMLNEHDFEVRGDVVNGRNHQGPKRARESQDRKIFRGLEICCYGPFTNMPTDQLEWMVQLCGASVVKELSSFTLGTGVHPIVVVQPDAWTEDNGFHAIGQMCEAPVVTREWVLDSVALYQCQELDTYLIPQIPHSHY
< 0.6	BRCA1 S1655F (enzyme, human, UniProt P38398 1-1863, looked up, 3xFLAG-tagged bait; also called BRCT domain mutant S1655F; 51655F) MDLSALRVEEVQNVINAMQKILECPICLELIKEPVSTKCDHIFCKFCMLKLLNQKKGPSQCPLCKNDITKRSLQESTRFSQLVEELLKIICAFQLDTGLEYANSYNFAKKENNSPEHLKDEVSIIQSMGYRNRAKRLLQSEPENPSLQETSLSVQLSNLGTVRTLRTKQRIQPQKTSVYIELGSDSSEDTVNKATYCSVGDQELLQITPQGTRDEISLDSAKKAACEFSETDVTNTEHHQPSNNDLNTTEKRAAERHPEKYQGSSVSNLHVEPCGTNTHASSLQHENSSLLLTKDRMNVEKAEFCNKSKQPGLARSQHNRWAGSKETCNDRRTPSTEKKVDLNADPLCERKEWNKQKLPCSENPRDTEDVPWITLNSSIQKVNEWFSRSDELLGSDDSHDGESESNAKVADVLDVLNEVDEYSGSSEKIDLLASDPHEALICKSERVHSKSVESNIEDKIFGKTYRKKASLPNLSHVTENLIIGAFVTEPQIIQERPLTNKLKRKRRPTSGLHPEDFIKKADLAVQKTPEMINQGTNQTEQNGQVMNITNSGHENKTKGDSIQNEKNPNPIESLEKESAFKTKAEPISSSISNMELELNIHNSKAPKKNRLRRKSSTRHIHALELVVSRNLSPPNCTELQIDSCSSSEEIKKKKYNQMPVRHSRNLQLMEGKEPATGAKKSNKPNEQTSKRHDSDTFPELKLTNAPGSFTKCSNTSELKEFVNPSLPREEKEEKLETVKVSNNAEDPKDLMLSGERVLQTERSVESSSISLVPGTDYGTQESISLLEVSTLGKAKTEPNKCVSQCAAFENPKGLIHGCSKDNRNDTEGFKYPLGHEVNHSRETSIEMEESELDAQYLQNTFKVSKRQSFAPFSNPGNAEEECATFSAHSGSLKKQSPKVTFECEQKEENQGKNESNIKPVQTVNITAGFPVVGQKDKPVDNAKCSIKGGSRFCLSSQFRGNETGLITPNKHGLLQNPYRIPPLFPIKSFVKTKCKKNLLEENFEEHSMSPEREMGNENIPSTVSTISRNNIRENVFKEASSSNINEVGSSTNEVGSSINEIGSSDENIQAELGRNRGPKLNAMLRLGVLQPEVYKQSLPGSNCKHPEIKKQEYEEVVQTVNTDFSPYLISDNLEQPMGSSHASQVCSETPDDLLDDGEIKEDTSFAENDIKESSAVFSKSVQKGELSRSPSPFTHTHLAQGYRRGAKKLESSEENLSSEDEELPCFQHLLFGKVNNIPSQSTRHSTVATECLSKNTEENLLSLKNSLNDCSNQVILAKASQEHHLSEETKCSASLFSSQCSELEDLTANTNTQDPFLIGSSKQMRHQSESQGVGLSDKELVSDDEERGTGLEENNQEEQSMDSNLGEAASGCESETSVSEDCSGLSSQSDILTTQQRDTMQHNLIKLQQEMAELEAVLEQHGSQPSNSYPSIISDSSALEDLRNPEQSTSEKAVLTSQKSSEYPISQNPEGLSADKFEVSADSSTSKNKEPGVERSSPSKCPSLDDRWYMHSCSGSLQNRNYPSQEELIKVVDVEEQQLEESGPHDLTETSYLPRQDLEGTPYLESGISLFSDDPESDPSEDRAPESARVGNIPSSTSALKVPQLKVAESAQSPAAAHTTDTAGYNAMEESVSREKPELTASTERVNKRMSMVVFGLTPEEFMLVYKFARKHHITLTNLITEETTHVVMKTDAEFVCERTLKYFLGIAGGKWVVSYFWVTQSIKERKMLNEHDFEVRGDVVNGRNHQGPKRARESQDRKIFRGLEICCYGPFTNMPTDQLEWMVQLCGASVVKELSSFTLGTGVHPIVVVQPDAWTEDNGFHAIGQMCEAPVVTREWVLDSVALYQCQELDTYLIPQIPHSHY
< 0.6	BRCA1 5382insC (enzyme, human, UniProt P38398 1-1755, looked up, 3xFLAG-tagged bait; also called 5832insC) MDLSALRVEEVQNVINAMQKILECPICLELIKEPVSTKCDHIFCKFCMLKLLNQKKGPSQCPLCKNDITKRSLQESTRFSQLVEELLKIICAFQLDTGLEYANSYNFAKKENNSPEHLKDEVSIIQSMGYRNRAKRLLQSEPENPSLQETSLSVQLSNLGTVRTLRTKQRIQPQKTSVYIELGSDSSEDTVNKATYCSVGDQELLQITPQGTRDEISLDSAKKAACEFSETDVTNTEHHQPSNNDLNTTEKRAAERHPEKYQGSSVSNLHVEPCGTNTHASSLQHENSSLLLTKDRMNVEKAEFCNKSKQPGLARSQHNRWAGSKETCNDRRTPSTEKKVDLNADPLCERKEWNKQKLPCSENPRDTEDVPWITLNSSIQKVNEWFSRSDELLGSDDSHDGESESNAKVADVLDVLNEVDEYSGSSEKIDLLASDPHEALICKSERVHSKSVESNIEDKIFGKTYRKKASLPNLSHVTENLIIGAFVTEPQIIQERPLTNKLKRKRRPTSGLHPEDFIKKADLAVQKTPEMINQGTNQTEQNGQVMNITNSGHENKTKGDSIQNEKNPNPIESLEKESAFKTKAEPISSSISNMELELNIHNSKAPKKNRLRRKSSTRHIHALELVVSRNLSPPNCTELQIDSCSSSEEIKKKKYNQMPVRHSRNLQLMEGKEPATGAKKSNKPNEQTSKRHDSDTFPELKLTNAPGSFTKCSNTSELKEFVNPSLPREEKEEKLETVKVSNNAEDPKDLMLSGERVLQTERSVESSSISLVPGTDYGTQESISLLEVSTLGKAKTEPNKCVSQCAAFENPKGLIHGCSKDNRNDTEGFKYPLGHEVNHSRETSIEMEESELDAQYLQNTFKVSKRQSFAPFSNPGNAEEECATFSAHSGSLKKQSPKVTFECEQKEENQGKNESNIKPVQTVNITAGFPVVGQKDKPVDNAKCSIKGGSRFCLSSQFRGNETGLITPNKHGLLQNPYRIPPLFPIKSFVKTKCKKNLLEENFEEHSMSPEREMGNENIPSTVSTISRNNIRENVFKEASSSNINEVGSSTNEVGSSINEIGSSDENIQAELGRNRGPKLNAMLRLGVLQPEVYKQSLPGSNCKHPEIKKQEYEEVVQTVNTDFSPYLISDNLEQPMGSSHASQVCSETPDDLLDDGEIKEDTSFAENDIKESSAVFSKSVQKGELSRSPSPFTHTHLAQGYRRGAKKLESSEENLSSEDEELPCFQHLLFGKVNNIPSQSTRHSTVATECLSKNTEENLLSLKNSLNDCSNQVILAKASQEHHLSEETKCSASLFSSQCSELEDLTANTNTQDPFLIGSSKQMRHQSESQGVGLSDKELVSDDEERGTGLEENNQEEQSMDSNLGEAASGCESETSVSEDCSGLSSQSDILTTQQRDTMQHNLIKLQQEMAELEAVLEQHGSQPSNSYPSIISDSSALEDLRNPEQSTSEKAVLTSQKSSEYPISQNPEGLSADKFEVSADSSTSKNKEPGVERSSPSKCPSLDDRWYMHSCSGSLQNRNYPSQEELIKVVDVEEQQLEESGPHDLTETSYLPRQDLEGTPYLESGISLFSDDPESDPSEDRAPESARVGNIPSSTSALKVPQLKVAESAQSPAAAHTTDTAGYNAMEESVSREKPELTASTERVNKRMSMVVSGLTPEEFMLVYKFARKHHITLTNLITEETTHVVMKTDAEFVCERTLKYFLGIAGGKWVVSYFWVTQSIKERKMLNEHDFEVRGDVVNGRNHQGPKRARESPGQKDLQGARNLLLWALHQHAHRSTGMDGTAVWCFCGEGAFIIHPWHRCPPNCGCAARCLDRGQWLPCNWADV

— patent US20240321457A1 (University of California, published 2024)
